Target: the molecule itself
Test: crystal structure

B1: Rap1GAP Q204A (75–415) (domain or fragment)
chain: not shown
In the case of B1, the “stoichiometry N” value is reported as 2.
